For the data set the following is noted: whole UniProt chain shown.
Setting [1] is: Escherichia coli (strain K12), pH 3, Thermal, CD, glycine-HCl 10 mM, NaCl 0.1 M, reversible: yes.
Where [2] appears, read: Escherichia coli (strain K12), pH 3, Thermal, CD, glycine-HCl 10 mM, reversible: yes.
[3] abbreviates: Escherichia coli (strain K12), pH 5.5, Thermal, CD, Sodium acetate 5 mM, KCl 50 mM, reversible: no.
Where [4] appears, read: Escherichia coli (strain K12), pH 5.5, Thermal, CD, Sodium acetate 20 mM, reversible: yes.
[5] abbreviates: Escherichia coli (strain K12), pH 8, 25 °C, GdnHCl, CD, Potassium phosphate 20 mM, KCl 50 mM, reversible: yes.
Setting [6] is: Escherichia coli (strain K12), pH 8, 25 °C, GdnHCl, CD, Potassium phosphate 50 mM, KCl 50 mM, reversible: yes.
Where [7] appears, read: Escherichia coli (strain K12), pH 8, 25 °C, Urea, CD, Potassium phosphate 20 mM, KCl 50 mM, reversible: yes.
The mark [8] stands for this setting: Escherichia coli (strain K12), pH 7, 27 °C, Urea, Fluorescence, Potassium phosphate 50 mM, transition: 3, reversible: yes.
The mark [9] stands for this setting: Escherichia coli (strain K12), pH 7, 25 °C, Thermal, DSC, Potassium phosphate 25 mM, KCl 100 mM, reversible: yes.
Where [10] appears, read: Escherichia coli (strain K12), pH 7, Thermal, DSC, Potassium phosphate 25 mM, KCl 100 mM, reversible: yes.
The mark [11] stands for this setting: Escherichia coli (strain K12), pH 7.4, Thermal, DSC, phosphate 5 mM, reversible: yes.
Setting [12] is: Escherichia coli (strain K12), pH 8.3, Thermal, DSC, borate 40 mM.
The mark [13] stands for this setting: Erythrina corallodendron, pH 7.4, Thermal, DSC, Sodium phosphate 0.02 M, NaCl 0.15 M, reversible: yes.

Several values for one entry are separate records, joined by “and”; a condition that tells them apart may be missing. Equal values may be shown once.

Data on nine proteins can be found in FireProtDB.

As a reminder, the Tm is the temperature at the midpoint of the melting transition.

B1: Ribonuclease HI wild type, P0A7Y4 (protein)
chain: MLKQVEIFTDGSCLGNPGPGGYGAILRYRGREKTFSAGYTRTTNNRMELMAAIVALEALKEHCEVILSTDSQYVRQGITQWIHNWKKRGWKTADKKPVKNVDLWQRLDAALGQHQIKWEWVKGHAGHPENERCDELARAAAMNPTLEDTGYQVEV
B1: the midpoint of thermal melting (Tm) reads like this: (Escherichia coli (strain K12), pH 3, Thermal, CD, Gly-HCl buffer 10 mM, NaCl 0.1 M, reversible: yes) 49.8 °C; under setting [1], 50.1 °C; under setting [2], 49.8 °C; under setting [3], 66 °C; under setting [4], 52 °C; (Escherichia coli (strain K12), pH 5.5, Thermal, CD, sodium acetate 20 mM, NaCl 0.1 M, reversible: yes) 52 °C. The Tm (Escherichia coli (strain K12), pH 8, Thermal, CD, Potassium phosphate 20 mM, KCl 50 mM, reversible: yes) amounted to 55 °C. The “unfolding enthalpy (van 't Hoff)” value is, setting by setting: under setting [1], 113 kcal/mol; under setting [2], 98.1 kcal/mol; under setting [3], 120 kcal/mol; under setting [4], 89 kcal/mol. In addition, the “heat capacity change of unfolding” value under setting [3] worked out at 2.7 kcal/mol/K. The “denaturant midpoint (higher = more stable)” value runs as follows: under setting [5], 1.6 M; under setting [6], 1.18 M; under setting [7], 3.84 M. In addition, the unfolding free energy runs as follows: under setting [5], 7.2 kcal/mol; under setting [6], 3.95 kcal/mol; under setting [7], 7.4 kcal/mol.

B2: PTS system mannose-specific EIIAB component wild type, P69797 (protein)
chain: MTIAIVIGTHGWAAEQLLKTAEMLLGEQENVGWIDFVPGENAETLIEKYNAQLAKLDTTKGVLFLVDTWGGSPFNAASRIVVDKEHYEVIAGVNIPMLVETLMARDDDPSFDELVALAVETGREGVKALKAKPVEKAAPAPAAAAPKAAPTPAKPMGPNDYMVIGLARIDDRLIHGQVATRWTKETNVSRIIVVSDEVAADTVRKTLLTQVAPPGVTAHVVDVAKMIRVYNNPKYAGERVMLLFTNPTDVERLVEGGVKITSVNVGGMAFRQGKTQVNNAVSVDEKDIEAFKKLNARGIELEVRKVSTDPKLKMMDLISKIDK
As for B2, the unfolding free energy (Escherichia coli (strain K12), pH 7.4, 22 °C, GdnHCl, CD, Sodium phosphate 20 mM, reversible: yes) amounted to 6.5 kcal/mol. The “unfolding enthalpy (van 't Hoff)” value (Escherichia coli (strain K12), pH 7.4, Thermal, CD, Sodium phosphate 20 mM, reversible: yes) turned out to be 135 kcal/mol.

B3: 3-isopropylmalate dehydrogenase wild type, P30125 (protein)
chain: MSKNYHIAVLPGDGIGPEVMTQALKVLDAVRNRFAMRITTSHYDVGGAAIDNHGQPLPPATVEGCEQADAVLFGSVGGPKWEHLPPDQQPERGALLPLRKHFKLFSNLRPAKLYQGLEAFCPLRADIAANGFDILCVRELTGGIYFGQPKGREGSGQYEKAFDTEVYHRFEIERIARIAFESARKRRHKVTSIDKANVLQSSILWREIVNEIATEYPDVELAHMYIDNATMQLIKDPSQFDVLLCSNLFGDILSDECAMITGSMGMLPSASLNEQGFGLYEPAGGSAPDIAGKNIANPIAQILSLALLLRYSLDADDAACAIERAINRALEEGIRTGDLARGAAAVSTDEMGDIIARYVAEGV
B3: under setting [8], the denaturant m value was 5.56 kcal/mol/M and 2.22 kcal/mol/M; the unfolding free energy was 14.7 kcal/mol and 17.7 kcal/mol. Also, the “unfolding enthalpy (van 't Hoff)” value (Escherichia coli (strain K12), pH 7, Thermal, Fluorescence, potassium phosphate 50 mM, DTT 1 mM, transition: 3, reversible: yes) was 15.4 kcal/mol and 17.8 kcal/mol.

B4: Met repressor wild type, P0A8U6 (protein)
chain: MAEWSGEYISPYAEHGKKSEQVKKITVSIPLKVLKILTDERTRRQVNNLRHATNSELLCEAFLHAFTGQPLPDDADLRKERSDEIPEAAKEIMREMGINPETWEY
In the case of B4, under setting [9], the “heat capacity change of unfolding” value was 2.13 kcal/mol/K and the unfolding free energy is 7.77 kcal/mol. Moreover, under setting [10], the Tm is 53.2 °C, the “heat capacity change of unfolding” value was 2.13 kcal/mol/K, the “unfolding enthalpy (calorimetric)” value came to 121 kcal/mol and the “unfolding enthalpy (van 't Hoff)” value was determined as 131 kcal/mol.

B5: Tetracycline repressor protein class D wild type, P0ACT4 (protein)
chain: MARLNRESVIDAALELLNETGIDGLTTRKLAQKLGIEQPTLYWHVKNKRALLDALAVEILARHHDYSLPAAGESWQSFLRNNAMSFRRALLRYRDGAKVHLGTRPDEKQYDTVETQLRFMTENGFSLRDGLYAISAVSHFTLGAVLEQQEHTAALTDRPAAPDENLPPLLREALQIMDSDDGEQAFLHGLESLIRGFEVQLTALLQIVGGDKLIIPFC
With B5, the “denaturant midpoint (higher = more stable)” value (Escherichia coli, pH 7.5, 22 °C, Urea, CD, Tris-HCl 50 mM, NaCl 150 mM, reversible: yes(96%)) is 4.7 M.

B6: L-arabinose-binding periplasmic protein wild type, P02924 (protein)
chain: MHKFTKALAAIGLAAVMSQSAMAENLKLGFLVKQPEEPWFQTEWKFADKAGKDLGFEVIKIAVPDGEKTLNAIDSLAASGAKGFVICTPDPKLGSAIVAKARGYDMKVIAVDDQFVNAKGKPMDTVPLVMMAATKIGERQGQELYKEMQKRGWDVKESAVMAITANELDTARRRTTGSMDALKAAGFPEKQIYQVPTKSNDIPGAFDAANSMLVQHPEVKHWLIVGMNDSTVLGGVRATEGQGFKAADIIGIGINGVDAVSELSKAQATGFYGSLLPSPDVHGYKSSEMLYNWVAKDVEPPKFTEVTDVVLITRDNFKEELEKKGLGGK
In the case of B6, under setting [11], the Tm amounted to 53.6 °C, the “heat capacity change of unfolding” value was determined as 3.16 kcal/mol/K and the “unfolding enthalpy (calorimetric)” value came to 152 kcal/mol.

B7: Regulatory protein cro wild type, P03040 (protein)
chain: MEQRITLKDYAMRFGQTKTAKDLGVYQSAINKAIHAGRKIFLTINADGSVYAEEVKPFPSNKKTTA
Regarding B7, the Tm was found to be 40 °C (Escherichia phage lambda, pH 3, Thermal, CD, Potassium phosphate 10 mM, KCl 0.1 M, reversible: yes) and 39.5 °C (Escherichia phage lambda, pH 7, Thermal, CD, Potassium phosphate 10 mM, KCl 0.1 M, reversible: yes).

B8: Ornithine carbamoyltransferase subunit I wild type, P04391 (protein)
chain: MSGFYHKHFLKLLDFTPAELNSLLQLAAKLKADKKSGKEEAKLTGKNIALIFEKDSTRTRCSFEVAAYDQGARVTYLGPSGSQIGHKESIKDTARVLGRMYDGIQYRGYGQEIVETLAEYASVPVWNGLTNEFHPTQLLADLLTMQEHLPGKAFNEMTLVYAGDARNNMGNSMLEAAALTGLDLRLVAPQACWPEAALVTECRALAQQNGGNITLTEDVAKGVEGADFIYTDVWVSMGEAKEKWAERIALLREYQVNSKMMQLTGNPEVKFLHCLPAFHDDQTTLGKKMAEEFGLHGGMEVTDEVFESAASIVFDQAENRMHTIKAVMVATLSK
Regarding B8, under setting [12], the Tm was determined as 62.5 °C and the “unfolding enthalpy (calorimetric)” value was 600 kcal/mol.

B9: Lectin wild type, P16404 (protein)
chain: MATYKLCSVLALSLTLFLLILNKVNSVETISFSFSEFEPGNDNLTLQGAALITQSGVLQLTKINQNGMPAWDSTGRTLYAKPVHIWDMTTGTVASFETRFSFSIEQPYTRPLPADGLVFFMGPTKSKPAQGYGYLGIFNNSKQDNSYQTLGVEFDTFSNPWDPPQVPHIGIDVNSIRSIKTQPFQLDNGQVANVVIKYDASSKILHAVLVYPSSGAIYTIAEIVDVKQVLPEWVDVGLSGATGAQRDAAETHDVYSWSFQASLPETNDAVIPTSNHNTFAI
Consider B9, for which, under setting [13], the Tm worked out at 61.7 °C, the “unfolding enthalpy (calorimetric)” value stood at 320 kcal/mol and the “unfolding enthalpy (van 't Hoff)” value stood at 151 kcal/mol.
